Assay results from patent US6361968.
pKd: −log10 of the molar value.

Assays:
[1] = target: bHLH MAX (unmodified Max) (UniProt P61244); assay: homodimer, dimerization study of FIG. 9
[2] = target: c-Myc bHLH protein (murine) (UniProt P01108); assay: heterodimer with c-Myc, dimerization study of FIG. 9
c-Jun (unmodified) = c-Jun (unmodified) (UniProt P05412); assay: thermal melt of the mixture (FIG. 4)
c-Jun (unmodified), sequence (P05412 241-331 limits assumed): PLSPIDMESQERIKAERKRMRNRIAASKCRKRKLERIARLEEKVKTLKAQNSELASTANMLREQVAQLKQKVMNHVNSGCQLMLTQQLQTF

c-Myc bHLH protein (murine), sequence (P01108 368-454 limits assumed, form in doubt): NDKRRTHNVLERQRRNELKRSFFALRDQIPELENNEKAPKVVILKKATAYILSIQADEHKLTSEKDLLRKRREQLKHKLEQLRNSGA

| pKd [1] | pKd [2] | Tm (c-Jun (unmodified)) [°C] | Substance |
| --- | --- | --- | --- |
| 5.22 | 7.52 | – | bHLH MAX (unmodified Max) (from UniProt P61244 23-113) |
| – | – | 53 | 0heptad-Fos (c-Fos with the basic region deleted) (designed binder) |
